Square brackets hold non-standard residues; d marks the D form. Bip = N[C@@H](Cc1ccc(-c2ccccc2)cc1)C(=O)O; dPhe(4-I) = N[C@H](Cc1ccc(I)cc1)C(=O)O; 2Nal = N[C@@H](Cc1ccc2ccccc2c1)C(=O)O; d2Nal = N[C@H](Cc1ccc2ccccc2c1)C(=O)O; Bta = N[C@@H](Cc1csc2ccccc12)C(=O)O; Tic = O=C(O)[C@@H]1Cc2ccccc2CN1
What was measured:
Test in all cases: cell-based or functional assay
[1] = molecular target: mouse melanocortin-5 receptor (mouse, UniProt P41149 1-325)
[2] = molecular target: mouse melanocortin-3 receptor (mouse, UniProt P33033 1-323)
Chain of mouse melanocortin-3 receptor (P33033 whole entry): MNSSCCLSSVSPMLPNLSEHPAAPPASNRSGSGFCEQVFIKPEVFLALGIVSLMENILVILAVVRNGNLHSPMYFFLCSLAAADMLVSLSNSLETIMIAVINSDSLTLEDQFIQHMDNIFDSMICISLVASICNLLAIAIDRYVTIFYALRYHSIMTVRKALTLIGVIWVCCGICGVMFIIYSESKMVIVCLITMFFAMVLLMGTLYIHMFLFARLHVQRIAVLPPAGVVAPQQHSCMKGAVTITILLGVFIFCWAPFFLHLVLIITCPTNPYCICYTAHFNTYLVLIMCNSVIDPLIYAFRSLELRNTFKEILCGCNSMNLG

[3] = molecular target: mouse melanocortin-4 receptor (mouse, UniProt P56450 1-332)
Chain of mouse melanocortin-4 receptor (P56450 whole entry): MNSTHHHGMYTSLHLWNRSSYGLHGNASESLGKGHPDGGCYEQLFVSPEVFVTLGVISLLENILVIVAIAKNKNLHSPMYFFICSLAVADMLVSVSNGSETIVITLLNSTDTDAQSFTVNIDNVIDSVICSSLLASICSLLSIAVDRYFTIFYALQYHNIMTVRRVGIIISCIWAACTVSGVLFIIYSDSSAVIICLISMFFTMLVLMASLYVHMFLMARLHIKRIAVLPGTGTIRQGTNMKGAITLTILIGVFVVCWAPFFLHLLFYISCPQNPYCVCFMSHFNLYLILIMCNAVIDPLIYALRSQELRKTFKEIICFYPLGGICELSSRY

Chain of mouse melanocortin-5 receptor (P41149 whole entry): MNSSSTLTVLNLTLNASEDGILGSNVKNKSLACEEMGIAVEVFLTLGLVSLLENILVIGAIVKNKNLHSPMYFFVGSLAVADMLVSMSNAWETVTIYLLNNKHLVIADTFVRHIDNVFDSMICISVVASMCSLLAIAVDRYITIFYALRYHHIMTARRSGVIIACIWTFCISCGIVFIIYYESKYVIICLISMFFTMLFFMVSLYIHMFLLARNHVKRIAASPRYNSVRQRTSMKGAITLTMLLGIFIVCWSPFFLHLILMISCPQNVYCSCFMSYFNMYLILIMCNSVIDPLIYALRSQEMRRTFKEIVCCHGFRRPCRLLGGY

B1: SKY4-48-30, Ac-Tic-Arg-(pI)DPhe-Phe-NH2 (peptide)
peptide: Ac-[Tic]R[dPhe(4-I)]F-NH2
SMILES: CC(=O)N1Cc2ccccc2C[C@H]1C(=O)N[C@@H](CCCNC(=N)N)C(=O)N[C@H](Cc1ccc(I)cc1)C(=O)N[C@@H](Cc1ccccc1)C(N)=O
B1 was tested, and the “Agonist, % of NDP-MSH maximal response” value [1] was 21 % @ 100 µM.

For Ac-FR[dPhe(4-I)][2Nal]-NH2 [SKY4-48-39, Ac-Phe-Arg-(pI)DPhe-Nal(2')-NH2], the “Agonist, % of NDP-MSH maximal response” value [2] was 44 % @ 100 µM and the “Agonist, % of NDP-MSH maximal response” value [1] was 61 % @ 100 µM.

Ac-[Bta]R[dPhe(4-I)][2Nal]-NH2 [SKY4-48-37, Ac-3Bal-Arg-(pI)DPhe-Nal(2')-NH2] was tested, and the “Agonist, % of NDP-MSH maximal response” value [1] was 50 % @ 100 µM.

With Ac-FR[dPhe(4-I)][d2Nal]-NH2 [SKY4-48-47, Ac-Phe-Arg-(pI)DPhe-DNal(2')-NH2] the “Agonist, % of NDP-MSH maximal response” value [2] was 22 % @ 100 µM and the “Agonist, % of NDP-MSH maximal response” value [1] was 39 % @ 100 µM.

B2: SKY4-48-28, Ac-Bip-Arg-(pI)DPhe-Phe-NH2 (peptide)
peptide: Ac-[Bip]R[dPhe(4-I)]F-NH2
SMILES: CC(=O)N[C@@H](Cc1ccc(-c2ccccc2)cc1)C(=O)N[C@@H](CCCNC(=N)N)C(=O)N[C@H](Cc1ccc(I)cc1)C(=O)N[C@@H](Cc1ccccc1)C(N)=O
With B2 the “Agonist, % of NDP-MSH maximal response” value [2] was 77 % @ 100 µM and the “Agonist, % of NDP-MSH maximal response” value [1] was 69 % @ 100 µM.

In the case of Ac-[d2Nal]R[dPhe(4-I)][Bta]-NH2 [SKY4-48-17, Ac-DNal(2')-Arg-(pI)DPhe-3Bal-NH2], the “Agonist, % of NDP-MSH maximal response” value [3] is reported as 45 % @ 100 µM.

B3: SKY4-48-32, Ac-Nal(2')-Arg-(pI)DPhe-Phe-NH2 (peptide)
peptide: Ac-[2Nal]R[dPhe(4-I)]F-NH2
SMILES: CC(=O)N[C@@H](Cc1ccc2ccccc2c1)C(=O)N[C@@H](CCCNC(=N)N)C(=O)N[C@H](Cc1ccc(I)cc1)C(=O)N[C@@H](Cc1ccccc1)C(N)=O
For B3, the “Agonist, % of NDP-MSH maximal response” value [2] was 42 % @ 100 µM and the “Agonist, % of NDP-MSH maximal response” value [1] was 49 % @ 100 µM.

With Ac-RR[dPhe(4-I)][2Nal]-NH2 [SKY4-48-34, Ac-Arg-Arg-(pI)DPhe-Nal(2')-NH2] the “Agonist, % of NDP-MSH maximal response” value [2] was 51 % @ 100 µM.

For Ac-[Bip]R[dPhe(4-I)][d2Nal]-NH2 [SKY4-48-44, Ac-Bip-Arg-(pI)DPhe-DNal(2')-NH2], the “Agonist, % of NDP-MSH maximal response” value [2] was 32 % @ 100 µM and the “Agonist, % of NDP-MSH maximal response” value [1] was 55 % @ 100 µM.

B4: SKY5-146-4, Ac-3Bal-Arg-(pI)DPhe-Phe-NH2 (peptide)
peptide: Ac-[Bta]R[dPhe(4-I)]F-NH2
SMILES: CC(=O)N[C@@H](Cc1csc2ccccc12)C(=O)N[C@@H](CCCNC(=N)N)C(=O)N[C@H](Cc1ccc(I)cc1)C(=O)N[C@@H](Cc1ccccc1)C(N)=O
In the case of B4, the “Agonist, % of NDP-MSH maximal response” value [2] is reported as 37 % @ 100 µM and the “Agonist, % of NDP-MSH maximal response” value [1] is reported as 35 % @ 100 µM.

Ac-[Tic]R[dPhe(4-I)][Tic]-NH2 [SKY6-24-1, Ac-Tic-Arg-(pI)DPhe-Tic-NH2] was tested, and the “Agonist, % of NDP-MSH maximal response” value [3] was 36 % @ 100 µM.

With Ac-[2Nal]R[dPhe(4-I)][2Nal]-NH2 [SKY4-48-40, Ac-Nal(2')-Arg-(pI)DPhe-Nal(2')-NH2] the “Agonist, % of NDP-MSH maximal response” value [2] was 39 % @ 100 µM and the “Agonist, % of NDP-MSH maximal response” value [1] was 45 % @ 100 µM.

With Ac-[Bta]R[dPhe(4-I)][Tic]-NH2 [SKY4-48-21, Ac-3Bal-Arg-(pI)DPhe-Tic-NH2] the “Agonist, % of NDP-MSH maximal response” value [3] was 37 % @ 100 µM.

B5: SKY4-48-31, Ac-Phe-Arg-(pI)DPhe-Phe-NH2 (peptide)
peptide: Ac-FR[dPhe(4-I)]F-NH2
SMILES: CC(=O)N[C@@H](Cc1ccccc1)C(=O)N[C@@H](CCCNC(=N)N)C(=O)N[C@H](Cc1ccc(I)cc1)C(=O)N[C@@H](Cc1ccccc1)C(N)=O
B5 was tested, and the “Agonist, % of NDP-MSH maximal response” value [2] was 50 % @ 100 µM and the “Agonist, % of NDP-MSH maximal response” value [1] was 52 % @ 100 µM.

For Ac-[Bip]R[dPhe(4-I)][Bip]-NH2 [SKY4-48-4, Ac-Bip-Arg-(pI)DPhe-Bip-NH2], the “Agonist, % of NDP-MSH maximal response” value [3] was 24 % @ 100 µM.
